The labels stand for the following.
T1: human FcγRIIb receptor protein (R&D Systems) (human, UniProt P31994 46-217)
T1 construct: Bought protein injected over captured antibody in Biacore; also called CD32b
T1 sequence (looked up): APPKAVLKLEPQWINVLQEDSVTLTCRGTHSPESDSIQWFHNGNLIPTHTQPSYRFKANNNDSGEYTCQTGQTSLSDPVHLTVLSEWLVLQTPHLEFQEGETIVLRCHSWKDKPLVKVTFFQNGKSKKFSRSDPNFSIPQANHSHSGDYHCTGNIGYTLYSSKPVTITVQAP

T2: human FcγRIIa (131R), His- and GST-tagged (human, UniProt P12318 34-217)
T2 construct: Expressed in HEK293T cells, purified by nickel chromatography; also called R131 FcγRIIa; not shown: 6xHis and GST tags of the pTT5 vector
T2 sequence (looked up): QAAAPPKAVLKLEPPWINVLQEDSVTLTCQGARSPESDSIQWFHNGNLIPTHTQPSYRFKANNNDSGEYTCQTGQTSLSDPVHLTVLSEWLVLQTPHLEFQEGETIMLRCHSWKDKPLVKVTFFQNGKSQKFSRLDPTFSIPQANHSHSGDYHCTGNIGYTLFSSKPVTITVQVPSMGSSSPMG

T3: human FcγRIIa (131H), His- and GST-tagged (human, UniProt P12318 34-217)
T3 construct: also called H131 FcγRIIa; HIIa; not shown: 6xHis and GST tags of the pTT5 vector
T3 sequence (looked up): T2 sequence (looked up) with R134H

T4: mFcγRIIb (Mus musculus, UniProt P08101)
T4 construct: extracellular region, C-terminal His- and GST-tag; also called mouse FcγRII
T4 sequence (receptor extracellular region, looked up): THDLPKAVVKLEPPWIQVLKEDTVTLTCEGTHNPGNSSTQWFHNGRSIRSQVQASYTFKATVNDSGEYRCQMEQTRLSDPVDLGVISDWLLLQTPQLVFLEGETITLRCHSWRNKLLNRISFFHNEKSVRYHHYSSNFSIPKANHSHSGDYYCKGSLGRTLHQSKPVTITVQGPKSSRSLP

T5: cynoFcγRIIb (Macaca fascicularis, UniProt A0A140HDP4)
T5 construct: extracellular region, C-terminal His- and GST-tag; also called cynomolgus monkey FcγRIIb
T5 sequence (receptor extracellular region): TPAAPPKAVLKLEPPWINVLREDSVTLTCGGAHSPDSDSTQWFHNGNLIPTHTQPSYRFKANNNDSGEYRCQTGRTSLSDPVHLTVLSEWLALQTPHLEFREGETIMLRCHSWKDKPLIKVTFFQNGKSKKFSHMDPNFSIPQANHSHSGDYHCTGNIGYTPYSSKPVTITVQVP

B1: G236S (antibody, human IgG1, kappa)
heavy: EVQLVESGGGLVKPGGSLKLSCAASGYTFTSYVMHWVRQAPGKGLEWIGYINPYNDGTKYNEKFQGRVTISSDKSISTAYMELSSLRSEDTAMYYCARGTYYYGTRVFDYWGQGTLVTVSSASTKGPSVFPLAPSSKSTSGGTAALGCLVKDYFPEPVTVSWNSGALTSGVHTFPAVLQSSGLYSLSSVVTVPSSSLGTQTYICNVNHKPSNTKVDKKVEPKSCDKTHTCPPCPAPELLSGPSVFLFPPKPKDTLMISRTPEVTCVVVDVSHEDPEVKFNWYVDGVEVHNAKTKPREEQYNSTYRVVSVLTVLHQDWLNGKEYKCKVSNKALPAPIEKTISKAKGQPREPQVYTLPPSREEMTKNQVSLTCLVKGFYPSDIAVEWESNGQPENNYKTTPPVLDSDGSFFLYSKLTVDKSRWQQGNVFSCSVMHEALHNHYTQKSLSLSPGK
light: DIVMTQSPATLSLSPGERATLSCRSSKSLQNVNGNTYLYWFQQKPGQSPQLLIYRMSNLNSGVPDRFSGSGSGTEFTLTISSLEPEDFAVYYCMQHLEYPITFGAGTKLEIKRTVAAPSVFIFPPSDEQLKSGTASVVCLLNNFYPREAKVQWKVDNALQSGNSQESVTEQDSKDSTYSLSSTLTLSKADYEKHKVYACEVTHQGLSSPVTKSFNRGEC
notes: HuAM4G7 anti-CD19 IgG1 (m1) with this Fc substitution, EU index; copies: 2 + 2
B2: L235Y/S267E/L328F (antibody, human IgG1, kappa)
heavy: EVQLVESGGGLVKPGGSLKLSCAASGYTFTSYVMHWVRQAPGKGLEWIGYINPYNDGTKYNEKFQGRVTISSDKSISTAYMELSSLRSEDTAMYYCARGTYYYGTRVFDYWGQGTLVTVSSASTKGPSVFPLAPSSKSTSGGTAALGCLVKDYFPEPVTVSWNSGALTSGVHTFPAVLQSSGLYSLSSVVTVPSSSLGTQTYICNVNHKPSNTKVDKKVEPKSCDKTHTCPPCPAPELYGGPSVFLFPPKPKDTLMISRTPEVTCVVVDVEHEDPEVKFNWYVDGVEVHNAKTKPREEQYNSTYRVVSVLTVLHQDWLNGKEYKCKVSNKAFPAPIEKTISKAKGQPREPQVYTLPPSREEMTKNQVSLTCLVKGFYPSDIAVEWESNGQPENNYKTTPPVLDSDGSFFLYSKLTVDKSRWQQGNVFSCSVMHEALHNHYTQKSLSLSPGK
light: B1 light
notes: HuAM4G7 anti-CD19 IgG1 (m1) with these Fc substitutions, EU index; copies: 2 + 2
B3: L235D/S267E (antibody, human IgG1, kappa)
heavy: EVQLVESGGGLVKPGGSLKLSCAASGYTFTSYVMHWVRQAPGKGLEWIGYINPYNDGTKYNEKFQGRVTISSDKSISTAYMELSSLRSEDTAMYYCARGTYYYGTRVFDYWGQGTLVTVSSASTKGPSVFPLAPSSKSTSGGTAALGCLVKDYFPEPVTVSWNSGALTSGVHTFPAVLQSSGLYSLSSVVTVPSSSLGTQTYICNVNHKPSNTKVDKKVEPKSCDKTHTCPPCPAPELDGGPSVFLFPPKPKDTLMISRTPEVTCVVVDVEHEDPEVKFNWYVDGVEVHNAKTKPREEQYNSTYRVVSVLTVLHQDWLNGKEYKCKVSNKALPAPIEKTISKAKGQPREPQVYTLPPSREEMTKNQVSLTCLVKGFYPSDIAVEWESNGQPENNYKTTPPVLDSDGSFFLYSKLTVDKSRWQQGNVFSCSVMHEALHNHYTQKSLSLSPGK
light: B1 light
notes: as for B2
B4: L235Y/S239D/S267E (antibody, human IgG1, kappa)
heavy: B2 heavy with S243D, F332L
light: B1 light
notes: as for B2
B5: L235D/S267E/L328F (antibody, human IgG1, kappa)
heavy: B2 heavy with Y239D
light: B1 light
notes: as for B2
B6: S267E/A327D (antibody, human IgG1, kappa)
heavy: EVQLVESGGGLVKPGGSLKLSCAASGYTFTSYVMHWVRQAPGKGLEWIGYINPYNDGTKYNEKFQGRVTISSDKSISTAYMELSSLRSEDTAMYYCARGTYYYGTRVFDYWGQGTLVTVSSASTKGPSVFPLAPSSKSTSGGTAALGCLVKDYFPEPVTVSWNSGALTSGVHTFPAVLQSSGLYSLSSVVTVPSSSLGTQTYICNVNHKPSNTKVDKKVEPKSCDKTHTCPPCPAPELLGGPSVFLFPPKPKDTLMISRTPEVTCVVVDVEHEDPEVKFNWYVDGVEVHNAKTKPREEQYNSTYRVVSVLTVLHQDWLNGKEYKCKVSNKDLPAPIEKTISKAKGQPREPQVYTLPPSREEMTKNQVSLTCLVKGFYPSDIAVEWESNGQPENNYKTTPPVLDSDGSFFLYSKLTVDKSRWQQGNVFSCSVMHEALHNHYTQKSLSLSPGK
light: B1 light
notes: as for B2
B7: L235Y/S267E/H268E (antibody, human IgG1, kappa)
heavy: B2 heavy with H272E, F332L
light: B1 light
notes: as for B2
B8: L235I (antibody, human IgG1, kappa)
heavy: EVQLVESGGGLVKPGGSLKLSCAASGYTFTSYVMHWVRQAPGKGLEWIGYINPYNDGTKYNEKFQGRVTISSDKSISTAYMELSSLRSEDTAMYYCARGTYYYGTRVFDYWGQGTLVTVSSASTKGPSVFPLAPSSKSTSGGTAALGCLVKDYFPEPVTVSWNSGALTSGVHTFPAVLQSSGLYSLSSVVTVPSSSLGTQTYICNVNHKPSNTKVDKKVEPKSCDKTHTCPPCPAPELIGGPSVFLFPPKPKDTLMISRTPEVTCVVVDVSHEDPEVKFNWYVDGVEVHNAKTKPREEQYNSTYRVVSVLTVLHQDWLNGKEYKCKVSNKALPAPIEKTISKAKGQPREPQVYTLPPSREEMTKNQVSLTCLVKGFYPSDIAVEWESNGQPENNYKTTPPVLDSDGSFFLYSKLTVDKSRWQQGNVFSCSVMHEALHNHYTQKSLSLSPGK
light: B1 light
notes: as for B1
B9: L235Y/G236D/S267E (antibody, human IgG1, kappa)
heavy: B2 heavy with G240D, F332L
light: B1 light
notes: as for B2

Where a chain is given by its changes, count along the chain named. Numbers in names are those of the source.
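For Fold vs WT IgG1 (off-rate) in this document: fold improvement over WT IgG1 so higher means slower dissociation than WT.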

The target of one assay is T1, human FcγRIIb receptor protein (R&D …). The experiment in a line: SPR. For orientation: In SPR one partner is held on a chip, and binding of the other changes the refractive index at the surface.
For B1, the “Fold vs WT IgG1” value worked out at 1.02 fold and the Kd turned out to be 1440 nM.

As to B2, the “Fold vs WT IgG1” value came out at 187 fold and binding was put at a Kd of 7.83 nM.

For the molecule B3, the “Fold vs WT IgG1” value is 16.7 fold and binding was characterised by a dissociation constant (Kd) of 88.1 nM.

With B4, the “Fold vs WT IgG1” value worked out at 116 fold and the Kd came to 12.6 nM.

For B5, the “Fold vs WT IgG1” value was found to be 80.4 fold and binding was characterised by a dissociation constant (Kd) of 18.2 nM.

With B6, the “Fold vs WT IgG1” value was 21.2 fold and the Kd amounted to 69.1 nM.

For B7, the “Fold vs WT IgG1” value was 69.9 fold and the equilibrium dissociation constant (Kd) stood at 21 nM.

As to B8, the “Fold vs WT IgG1” value amounted to 0.908 fold and the equilibrium dissociation constant (Kd) was 1620 nM.

Take B9: the “Fold vs WT IgG1” value was determined as 25 fold and binding was put at a Kd of 58.7 nM.

In another assay the target is T6, human FcγRI receptor protein (R&D Systems) (human, UniProt P12314 16-288).
T6 construct: also called soluble FcγRI; solFcγRI
T6 sequence (P12314 16-288 limits assumed): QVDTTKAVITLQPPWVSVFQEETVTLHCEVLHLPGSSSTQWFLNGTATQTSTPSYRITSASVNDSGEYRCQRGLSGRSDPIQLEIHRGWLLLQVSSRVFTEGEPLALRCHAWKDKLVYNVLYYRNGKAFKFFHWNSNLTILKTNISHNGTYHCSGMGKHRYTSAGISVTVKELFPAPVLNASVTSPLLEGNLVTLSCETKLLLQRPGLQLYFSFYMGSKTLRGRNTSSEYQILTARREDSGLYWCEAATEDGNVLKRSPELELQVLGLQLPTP
The experiment in a line: SPR.
Turning to B1, the “Fold vs WT IgG1” value came out at 0.0268 fold and the Kd is 12.3 nM.

For B2, the “Fold vs WT IgG1” value was determined as 0.00436 fold and the Kd is 75.5 nM.

With B3, the “Fold vs WT IgG1” value was 0.00039 fold and binding was characterised by a dissociation constant (Kd) of 854 nM.

In the case of B4, the “Fold vs WT IgG1” value was 1.07 fold and the Kd stood at 0.307 nM.

Turning to B5, the “Fold vs WT IgG1” value worked out at 0.00057 fold and the Kd amounted to 573 nM.

For the molecule B6, the “Fold vs WT IgG1” value is 1.66 fold and the Kd was found to be 0.198 nM.

With B7, the “Fold vs WT IgG1” value is 0.0103 fold and binding was characterised by a dissociation constant (Kd) of 32.1 nM.

Consider B8, for which the “Fold vs WT IgG1” value came out at 0.0197 fold and the equilibrium dissociation constant (Kd) turned out to be 16.7 nM.

With B9, the binding result is reported as “no binding”.

In a further assay the target is T2, human FcγRIIa (131R), His- and …. The assay is described as follows: SPR.
In the case of B1, the “Fold vs WT IgG1” value turned out to be 2.33 fold and the Kd stood at 369 nM.

Take B2: the “Fold vs WT IgG1” value worked out at 171 fold and the dissociation constant Kd was determined as 5.02 nM.

In the case of B3, the “Fold vs WT IgG1” value is 13 fold and binding was put at a Kd of 66.1 nM.

As to B4, the “Fold vs WT IgG1” value is 98.9 fold and the Kd was determined as 8.68 nM.

In the case of B5, the “Fold vs WT IgG1” value stood at 133 fold and the Kd is 6.45 nM.

B6: the “Fold vs WT IgG1” value amounted to 16.7 fold and binding was characterised by a dissociation constant (Kd) of 51.3 nM.

Turning to B7, the “Fold vs WT IgG1” value stood at 48.2 fold and the Kd amounted to 17.8 nM.

In the case of B8, the “Fold vs WT IgG1” value came to 0.666 fold and the Kd amounted to 1290 nM.

For the molecule B9, the “Fold vs WT IgG1” value was determined as 9.67 fold and the Kd worked out at 88.8 nM.

For the next assay, the target named is T3, human FcγRIIa (131H), His- and …. The experiment in a line: SPR.
Regarding B1, the “Fold vs WT IgG1” value turned out to be 3.76 fold and the Kd was found to be 172 nM.

As to B2, the “Fold vs WT IgG1” value turned out to be 0.758 fold and the affinity, expressed as Kd, was 853 nM.

B3: the binding result is listed as “no binding”.

Consider B4, for which the “Fold vs WT IgG1” value worked out at 1.05 fold and the Kd came out at 617 nM.

Turning to B5, the “Fold vs WT IgG1” value came out at 0.275 fold and the Kd is 2350 nM.

As to B7, the “Fold vs WT IgG1” value was determined as 0.157 fold and the Kd is 4130 nM.

Turning to B8, the “Fold vs WT IgG1” value amounted to 0.181 fold and binding was put at a Kd of 3580 nM.

In the case of B9, the binding result was “no binding”.

The target of another assay is T7, human FcγRIIIa (158V), His- and GST-tagged (human, UniProt P08637 17-208).
T7 construct: also called V158 FcγRIIIa; VIIIa; not shown: 6xHis and GST tags of the pTT5 vector
T7 sequence (P08637 17-208 F176V): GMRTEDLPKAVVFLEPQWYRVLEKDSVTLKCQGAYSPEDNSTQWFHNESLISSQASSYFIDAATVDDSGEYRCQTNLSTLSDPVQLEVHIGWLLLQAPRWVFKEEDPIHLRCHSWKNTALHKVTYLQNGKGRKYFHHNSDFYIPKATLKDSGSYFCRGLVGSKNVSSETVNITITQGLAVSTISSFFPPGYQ
The experiment in a line: SPR.
For the molecule B1, the “Fold vs WT IgG1” value amounted to 0.00367 fold and binding was put at a Kd of 52200 nM.

Turning to B2, the binding result is reported as “no binding”.

For B3, the binding result was “no binding”.

Turning to B4, the “Fold vs WT IgG1” value was 2.6 fold and binding was characterised by a dissociation constant (Kd) of 73.5 nM.

For the molecule B5, the binding result was “no binding”.

In the case of B6, the “Fold vs WT IgG1” value was 0.00199 fold and binding was put at a Kd of 96300 nM.

Turning to B7, the “Fold vs WT IgG1” value is 0.428 fold and the Kd worked out at 447 nM.

As for B8, the “Fold vs WT IgG1” value was 0.903 fold and the Kd is 212 nM.

With B9, the binding result was “no binding”.

Another assay addresses T4, mFcγRIIb. The experiment in a line: SPR.
As to B6, the “Fold vs WT IgG1 (off-rate)” value was 0.971 fold.

Another assay addresses T5, cynoFcγRIIb. The assay is described as follows: SPR.
On to B1, for which the “Fold vs WT IgG1 (Kd)” value came out at 3.55 fold.

For the molecule B6, the “Fold vs WT IgG1 (off-rate)” value stood at 0.697 fold.

A further assay deals with T8, cynoFcγRIIIa (Macaca fascicularis, UniProt Q8SPW2).
T8 construct: extracellular region, C-terminal His- and GST-tag; also called cynomolgus monkey FcγRIIIa
T8 sequence (Q8SPW2 17-208): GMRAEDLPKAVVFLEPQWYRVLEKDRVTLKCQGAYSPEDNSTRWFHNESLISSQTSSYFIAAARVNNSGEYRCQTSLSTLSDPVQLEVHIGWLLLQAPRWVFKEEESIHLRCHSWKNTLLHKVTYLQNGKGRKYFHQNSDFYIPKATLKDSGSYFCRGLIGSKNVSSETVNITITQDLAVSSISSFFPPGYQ
The experiment in a line: SPR.
Turning to B1, the “Fold vs WT IgG1 (Kd)” value stood at 1.45 fold.

Broadly, the Kd is a measure of binding affinity in units of concentration. A high value points to a looser complex.
